According to article PMC8882007, “Syndapin-2 mediated transcytosis of amyloid-β across the blood–brain barrier” (Brain Communications, 2022):

Assays:
Assay in all cases: proximity ligation; Duolink PLA between two endogenous proteins in polarized bEnd3 monolayers, fixed in 4% PFA and permeabilized with 0.1% Triton X-100; two primary antibodies overnight at 4°C; PLA signal normalized by the number of nuclei; also in shRNA control (scramble) and syndapin-2 knockdown cells, and after FAM-Aβ (1–40) or Aβ monomers, oligomers or fibrils for 15 min
[1] = molecular target: Rab11 (mouse (endogenous in bEnd3)) (UniProt P62492)
[2] = molecular target: Rab7 (mouse (endogenous in bEnd3)) (UniProt P51150)
[3] = molecular target: Rab5 (mouse (endogenous in bEnd3)) (UniProt Q9CQD1)
Sequence of Rab5 (mouse (endogenous in bEnd3)) (Q9CQD1 whole entry): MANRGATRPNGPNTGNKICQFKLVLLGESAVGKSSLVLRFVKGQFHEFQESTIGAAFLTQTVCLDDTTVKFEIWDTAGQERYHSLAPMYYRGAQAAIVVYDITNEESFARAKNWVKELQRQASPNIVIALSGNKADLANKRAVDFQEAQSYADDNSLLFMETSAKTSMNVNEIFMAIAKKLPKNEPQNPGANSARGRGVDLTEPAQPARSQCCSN

Sequence of syndapin-2 (Q9WVE8 whole entry): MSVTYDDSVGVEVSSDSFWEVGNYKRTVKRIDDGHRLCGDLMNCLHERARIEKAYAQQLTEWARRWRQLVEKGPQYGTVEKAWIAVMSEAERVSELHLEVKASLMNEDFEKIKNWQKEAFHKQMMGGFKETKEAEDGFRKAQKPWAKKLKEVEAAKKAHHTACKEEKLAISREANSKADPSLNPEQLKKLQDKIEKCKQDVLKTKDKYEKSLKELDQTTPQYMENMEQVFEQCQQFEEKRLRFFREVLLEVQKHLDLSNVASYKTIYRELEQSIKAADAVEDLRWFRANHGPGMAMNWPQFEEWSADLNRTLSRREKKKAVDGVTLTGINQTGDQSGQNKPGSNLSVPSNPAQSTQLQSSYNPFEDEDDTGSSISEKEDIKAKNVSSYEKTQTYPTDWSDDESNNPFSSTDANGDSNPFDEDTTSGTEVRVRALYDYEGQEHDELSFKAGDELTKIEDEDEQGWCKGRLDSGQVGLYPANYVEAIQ
Sequence of Rab7 (mouse (endogenous in bEnd3)) (P51150 whole entry): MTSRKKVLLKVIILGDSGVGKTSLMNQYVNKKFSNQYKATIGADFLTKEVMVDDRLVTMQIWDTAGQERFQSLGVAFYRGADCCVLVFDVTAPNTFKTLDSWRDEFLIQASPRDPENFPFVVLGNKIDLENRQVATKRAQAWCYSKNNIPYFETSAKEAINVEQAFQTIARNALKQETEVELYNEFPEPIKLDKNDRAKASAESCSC
Sequence of Rab11 (mouse (endogenous in bEnd3)) (P62492 whole entry): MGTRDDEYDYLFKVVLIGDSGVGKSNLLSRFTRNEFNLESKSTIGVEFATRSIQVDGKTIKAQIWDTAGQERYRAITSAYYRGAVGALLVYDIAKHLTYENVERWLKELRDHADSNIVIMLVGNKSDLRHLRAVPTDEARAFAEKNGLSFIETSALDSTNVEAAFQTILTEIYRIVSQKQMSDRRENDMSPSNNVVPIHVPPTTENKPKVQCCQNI

- PLA dots per cell (dots per cell) [1]: < 20
- PLA dots per cell (dots per cell) [2]: < 20
- PLA dots per cell (dots per cell) [3]: < 20
Substance: syndapin-2 (from UniProt Q9WVE8 1-486) (natural protein)
